According to the supplement of paper PMC5998384:

Key:
HeLa Kyoto [1] = experiment: solubility in G1/S (NP-40 vs SDS abundance) (log2 ratio); higher = more soluble; conditions: cell cycle stage: G1/S
HeLa Kyoto [2] = experiment: melting temperature (median over replicates), in situ; higher = more thermally stable
HeLa Kyoto [3] = experiment: solubility change mitosis vs G1/S (difference of NP-40 vs SDS log2 ratios) (log2 ratio difference); higher = more soluble in mitosis
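For melting temperature (median over replicates), in situ in this document: HeLa Kyoto cells synchronized by double thymidine or nocodazole block, proteins quantified by TMT10plex mass spectrometry, three independent biological replicates.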
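For solubility change mitosis vs G1/S (difference of NP-40 vs SDS log2 ratios) in this document: synchronized HeLa Kyoto cells (double thymidine block for G1/S, nocodazole release for mitosis), protein amounts in NP-40 versus SDS lysates quantified by mass spectrometry, three biological replicates.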
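For solubility in G1/S (NP-40 vs SDS abundance) in this document: HeLa Kyoto cells arrested at G1/S by double thymidine block, proteins quantified by TMT10plex mass spectrometry in mild NP-40 versus SDS extracts, three biological replicates.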

Sequence | solubility in G1/S (log2) (HeLa Kyoto [1]) | melting temperature (HeLa Kyoto [2]; cell cycle stage: G1/S) | melting temperature (HeLa Kyoto [2]; cell cycle stage: mitosis) | solubility change mitosis (log2) (HeLa Kyoto [3])
MTGKSVKDVDRYQAVLANLLLEEDNKFCADCQSKGPRWASWNIGVFICIRCAGIHRNLGVHISRVKSVNLDQWTQEQIQCMQEMGNGKANRLYEAYLPETFRRPQIDPAVEGFIRDKYEKKKYMDRSLDINAFRKEKDDKWKRGSEPVPEKKLEPVVFEKVKMPQKKEDPQLPRKSSPKSTAPVMDLLGLDAPVACSIANSKTSNTLEKDLDLLASVPSPSSSGSRKVVGSMPTAGSAGSVPENLNLFPEPGSKSEEIGKKQLSKDSILSLYGSQTPQMPTQAMFMAPAQMAYPTAYPSFPGVTPPNSIMGSMMPPPVGMVAQPGASGMVAPMAMPAGYMGGMQASMMGVPNGMMTTQQAGYMAGMAAMPQTVYGVQPAQQLQWNLTQMTQQMAGMNFYGANGMMNYGQSMSGGNGQAANQTLSPQMWK [SMAP2] | 0.111 | 48.3 °C | 49.6 °C | -0.0647
MTLIEGVGDEVTVLFSVLACLLVLALAWVSTHTAEGGDPLPQPSGTPTPSQPSAAMAATDSMRGEAPGAETPSLRHRGQAAQPEPSTGFTATPPAPDSPQEPLVLRLKFLNDSEQVARAWPHDTIGSLKRTQFPGREQQVRLIYQGQLLGDDTQTLGSLHLPPNCVLHCHVSTRVGPPNPPCPPGSEPGPSGLEIGSLLLPLLLLLLLLLWYCQIQYRPFFPLTATLGLAGFTLLLSLLAFAMYRP [TMUB1] | 0.566 | 51.6 °C | 52.5 °C | 0.143
MTNEEPLPKKVRLSETDFKVMARDELILRWKQYEAYVQALEGKYTDLNSNDVTGLRESEEKLKQQQQESARRENILVMRLATKEQEMQECTTQIQYLKQVQQPSVAQLRSTMVDPAINLFFLKMKGELEQTKDKLEQAQNELSAWKFTPDSQTGKKLMAKCRMLIQENQELGRQLSQGRIAQLEAELALQKKYSEELKSSQDELNDFIIQLDEEVEGMQSTILVLQQQLKETRQQLAQYQQQQSQASAPSTSRTTASEPVEQSEATSKDCSRLTNGPSNGSSSRQRTSGSGFHREGNTTEDDFPSSPGNGNKSSNSSEERTGRGGSGYVNQLSAGYESVDSPTGSENSLTHQSNDTDSSHDPQEEKAVSGKGNRTVGSRHVQNGLDSSVNVQGSVL [WTAP] | -0.0275 | 48.9 °C | 50.3 °C | 0.772
MTRGNQRELARQKNMKKQSDSVKGKRRDDGLSAAARKQRDSEIMQQKQKKANEKKEEPK [SERF2] | 0.752 | 57.5 °C |  | 0.151
MTSTGQDSTTTRQRRSRQNPQSPPQDSSVTSKRNIKKGAVPRSIPNLAEVKKKGKMKKLGQAMEEDLIVGLQGMDLNLEAEALAGTGLVLDEQLNEFHCLWDDSFPEGPERLHAIKEQLIQEGLLDRCVSFQARFAEKEELMLVHSLEYIDLMETTQYMNEGELRVLADTYDSVYLHPNSYSCACLASGSVLRLVDAVLGAEIRNGMAIIRPPGHHAQHSLMDGYCMFNHVAVAARYAQQKHRIRRVLIVDWDVHHGQGTQFTFDQDPSVLYFSIHRYEQGRFWPHLKASNWSTTGFGQGQGYTINVPWNQVGMRDADYIAAFLHVLLPVALEFQPQLVLVAAGFDALQGDPKGEMAATPAGFAQLTHLLMGLAGGKLILSLEGGYNLRALAEGVSASLHTLLGDPCPMLESPGAPCRSAQASVSCALEALEPFWEVLVRSTETVERDNMEEDNVEESEEEGPWEPPVLPILTWPVLQSRTGLVYDQNMMNHCNLWDSHHPEVPQRILRIMCRLEELGLAGRCLTLTPRPATEAELLTCHSAEYVGHLRATEKMKTRELHRESSNFDSIYICPSTFACAQLATGAACRLVEAVLSGEVLNGAAVVRPPGHHAEQDAACGFCFFNSVAVAARHAQTISGHALRILIVDWDVHHGNGTQHMFEDDPSVLYVSLHRYDHGTFFPMGDEGASSQIGRAAGTGFTVNVAWNGPRMGDADYLAAWHRLVLPIAYEFNPELVLVSAGFDAARGDPLGGCQVSPEGYAHLTHLLMGLASGRIILILEGGYNLTSISESMAACTRSLLGDPPPLLTLPRPPLSGALASITETIQVHRRYWRSLRVMKVEDREGPSSSKLVTKKAPQPAKPRLAERMTTREKKVLEAGMGKVTSASFGEESTPGQTNSETAVVALTQDQPSEAATGGATLAQTISEAAIGGAMLGQTTSEEAVGGATPDQTTSEETVGGAILDQTTSEDAVGGATLGQTTSEEAVGGATLAQTTSEAAMEGATLDQTTSEEAPGGTELIQTPLASSTDHQTPPTSPVQGTTPQISPSTLIGSLRTLELGSESQGASESQAPGEENLLGEAAGGQDMADSMLMQGSRGLTDQAIFYAVTPLPWCPHLVAVCPIPAAGLDVTQPCGDCGTIQENWVCLSCYQVYCGRYINGHMLQHHGNSGHPLVLSYIDLSAWCYYCQAYVHHQALLDVKNIAHQNKFGEDMPHPH [HDAC6] | -0.0107 | 50.5 °C | 52 °C | -0.0591
